Patent publication US20080160006A1, “Nutrient Medium for Maintaining Neural Cells in Injured Nervous System” (priority 2001, published 2008)

Test system: human cortical brain cells (neurons vs glia)
Test: Adult human cortical brain cells cultured in B27/Neurobasal A, immunostained for neurofilament and GFAP
Assay type: cell-based
Conditions: added in addition to FGF2, sample 4
From the text: GENERAL METHODS. Brain tissue was ethically obtained by informed consent from patients before surgery under protocols approved by the Springfield Committee for Research on Human Subjects and the UC Irvine IRB. […] Rather than using aspiration to remove all tissue, slices of tissue 1-3 mm thick were obtained from cortical access ports or tissue that was marginal to the lesion. Use of electrocautery was kept to a minimum to reduce oxyradicals and other neuron damage. […] Hibernate A contains D-glucose, pyruvate, balanced salts, amino acids, and vitamins. B27 contains 5 antioxidants and 15 other components. […] After transport on ice to a laminar flow sterile hood in the culture laboratory, meninges and white matter were removed from the tissue with a scalpel and forceps in a 35 mm dish in 2 ml transport medium. […] The cell suspension was enriched for neurons by centrifugation on a density gradient of Optiprep (Invitrogen). […] The diluted Optiprep was further diluted with transport medium (v/v) to make a gradient containing 4 steps of 1 ml in a 15 ml centrifuge tube: bottom (0.35:0.65), 0.25:0.75, 0.2:0.8, top (0.15:0.85). Up to 6 ml of cell suspension was layered over the Optiprep step gradient. […] Cells were plated at a density of 320/mm^2 onto glass coverslips coated with polylysine as previously described. […]

B1: NT3: trophic factor NT3, recombinant, Regeneron (protein, UniProt P20783 139-257, looked up)
Neurotrophin-3: YAEHKSHRGEYSVCDSESLWVTDKSSAIDIRGHQVTVLGEIKTGNSPVKQYFYETRCKEARPVKNGCRGIDDKHWNSQCKTSQTYVRALTSENNKLVGWRWIRIDTSCVCALSRKIGRT
  survival of neurofilament positive cells versus FGF2 alone: no more efficacious
